Measurements taken from article PMC3794157, “Structure of the Fibrillin-1 N-Terminal Domains Suggests that Heparan Sulfate Regulates the Early Stages of Microfibril Assembly” (Structure(London, England:1993), 2013).

Columns and labels:
Test in all cases: pull-down; biotinylated cbEGF41-43 or control cbEGF32-34 immobilised on M270 streptavidin-coated magnetic beads; 15 ug His-tagged protein in 50 mM Tris-HCl pH 7.4, 150 mM NaCl, 2 mM CaCl2, 0.05% Tween-20, 1% BSA for 1 hr; western blot with anti-RGS-His-HRP
Settings in all cases: both partners purified
[1] = target: T1, human fibrillin-1 FUN-EGF3 fragment (residues R45-E178) (human, UniProt P35555 45-178)
T1 construct: human fibrillin-1, fibrillin unique N-terminal (FUN) domain and EGF1-EGF3, residues R45-E178; The vector pQE-30 is named; also called wild-type (WT) FUN-EGF3; fibrillin N-terminal fragment
T1 sequence (P35555 45-178): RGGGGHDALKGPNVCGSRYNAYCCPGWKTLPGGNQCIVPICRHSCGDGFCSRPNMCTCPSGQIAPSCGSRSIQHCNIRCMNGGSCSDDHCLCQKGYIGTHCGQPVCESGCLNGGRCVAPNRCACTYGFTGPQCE

S88A FUN-EGF3 = target: T2, S88A FUN-EGF3 (human, UniProt P35555 45-178, S88A)
T2 construct: human fibrillin-1 FUN-EGF3, residues R45-E178, with S88 substituted with alanine
T2 sequence (P35555 45-178 S88A): as the sequence (P35555 45-178) above, with S44A counted along it

R62A FUN-EGF3 = target: T3, R62A FUN-EGF3 (human, UniProt P35555 45-178, R62A)
T3 construct: human fibrillin-1 FUN-EGF3, residues R45-E178, with R62A
T3 sequence (P35555 45-178 R62A): as the sequence (P35555 45-178) above, with R18A counted along it

[2] = target: T4, FUN-EGF3 mutant lacking the 63Y-N-A-Y66 motif in the FUN domain (human, UniProt P35555 45-178, 63Y-N-A-Y66 deleted)
T4 construct: human fibrillin-1 FUN-EGF3, residues R45-E178, with 63Y-N-A-Y66 deleted; also called YNAY FUN-EGF3
T4 sequence (P35555 other isoform, or with tags, fused parts or gaps 63Y-N-A-Y66 deleted | 63Y-N-A-Y66 deleted | mutant): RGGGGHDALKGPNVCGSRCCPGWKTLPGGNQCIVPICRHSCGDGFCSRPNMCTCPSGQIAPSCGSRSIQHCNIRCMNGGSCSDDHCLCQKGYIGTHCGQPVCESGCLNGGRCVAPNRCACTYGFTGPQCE

FUN-EGF3 (G5) mutant = target: T5, FUN-EGF3 (G5) mutant (human, UniProt P35555 45-178, 113S-R-S-I-Q117 replaced with five glycines)
T5 construct: human fibrillin-1 FUN-EGF3, residues R45-E178, with 113S-R-S-I-Q117 of the EGF1-EGF2 linker replaced with five glycines; also called G5 FUN-EGF3
T5 sequence (P35555 other isoform, or with tags, fused parts or gaps with the stated changes): as the sequence (P35555 45-178) above, with S69G, R70G, S71G, I72G, Q73G counted along it

Measured: binding result

B1: human fibrillin-1 cbEGF41-43 fragment (residues D2567-V2687), biotinylated, C-terminal BirA tag (domain or fragment)
chain: not shown
modifications: biotin, site-specific, on the BirA tag
notes: Held on streptavidin-coated magnetic beads by its biotin; also called fibrillin C-terminal fragment; not shown: BirA tag, C-terminal, kept
binds: all assays above
